# From US20230203471A1, “METHOD AND PLATFORM FOR DISRUPTING INTRACELLULAR MICROTUBULES” (National Tsing Hua University, priority 2021, published 2023)
# B1: YFP-tagged full-length spastin (SpastinFL-YFP) (enzyme)
# chain: MAAKRSSGTAPAPASPSPPAPGPGGEAESVRVFHKQAFEYISIALRIDEEEKGQKEQAVEWYKKGIEELEKGIAVIVTGQGEQYERARRLQAKMMTNLVMAKDRLQLLEKLQPVLQFSKSQTDVYNESTNLTCRNGHLQSESGAVPKRKDPLTHASNSLPRSKTVLKSGSAGLSGHHRAPSCSGLSMVSGARPGPGPAATTHKGTPKPNRTNKPSTPTTAVRKKKDLKNFRNVDSNLANLIMNEIVDNGTAVKFDDIAGQELAKQALQEIVILPSLRPELFTGLRAPARGLLLFGPPGNGKTMLAKAVAAESNATFFNISAASLTSKYVGEGEKLVRALFAVARELQPSIIFIDEVDSLLCERREGEHDASRRLKTEFLIEFDGVQSAGDDRVLVMGATNRPQELDEAVLRRFIKRVYVSLPNEETRLLLLKNLLCKQGSPLTQKELAQLARMTDGYSGSDLTALAKDAALGPIRELKPEQVKNMSASEMRNIRLSDFTESLKKIKRSVSPQTLEAYIRWNKDFGDTTV
# B2: YFP-tagged truncated spastin without the N-terminal 1-140 amino acids (dNSpastin-YFP) (enzyme)
# chain: MESGAVPKRKDPLTHASNSLPRSKTVLKSGSAGLSGHHRAPSCSGLSMVSGARPGPGPAATTHKGTPKPNRTNKPSTPTTAVRKKKDLKNFRNVDSNLANLIMNEIVDNGTAVKFDDIAGQELAKQALQEIVILPSLRPELFTGLRAPARGLLLFGPPGNGKTMLAKAVAAESNATFFNISAASLTSKYVGEGEKLVRALFAVARELQPSIIFIDEVDSLLCERREGEHDASRRLKTEFLIEFDGVQSAGDDRVLVMGATNRPQELDEAVLRRFIKRVYVSLPNEETRLLLLKNLLCKQGSPLTQKELAQLARMTDGYSGSDLTALAKDAALGPIRELKPEQVKNMSASEMRNIRLSDFTESLKKIKRSVSPQTLEAYIRWNKDFGDTTV
# B3: dNSpastin3Q-mCh—Cry2: dNSpastin3Q tagged with mCh-Cry2 (protein)
# chain: MESGAVPKRKDPLTHASNSLPRSKTVLKSGSAGLSGHHRAPSCSGLSMVSGARPGPGPAATTHKGTPKPNRTNKPSTPTTAVRQQQDLKNFRNVDSNLANLIMNEIVDNGTAVKFDDIAGQELAKQALQEIVILPSLRPELFTGLRAPARGLLLFGPPGNGKTMLAKAVAAESNATFFNISAASLTSKYVGEGEKLVRALFAVARELQPSIIFIDEVDSLLCERREGEHDASRRLKTEFLIEFDGVQSAGDDRVLVMGATNRPQELDEAVLRRFIKRVYVSLPNEETRLLLLKNLLCKQGSPLTQKELAQLARMTDGYSGSDLTALAKDAALGPIRELKPEQVKNMSASEMRNIRLSDFTESLKKIKRSVSPQTLEAYIRWNKDFGDTTVMKMDKKTIVWFRRDLRIEDNPALAAAAHEGSVFPVFIWCPEEEGQFYPGRASRWWMKQSLAHLSQSLKALGSDLTLIKTHNTISAILDCIRVTGATKVVFNHLYDPVSLVRDHTVKEKLVERGISVQSYNGDLLYEPWEIYCEKGKPFTSFNSYWKKCLDMSIESVMLPPPWRLMPITAAAEAIWACSIEELGLENEAEKPSNALLTRAWSPGWSNADKLLNEFIEKQLIDYAKNSKKVVGNSTSLLSPYLHFGEISVRHVFQCARMKQIIWARDKNSEGEESADLFLRGIGLREYSRYICFNFPFTHEQSLLSHLRFFPWDADVDKFKAWRQGRTGYPLVDAGMRELRATGWMHNRIRVIVSSFAVKFLLLPWKWGMKYFWDTLLDADLECDILGWQYISGSIPDGHELDRLDNPALQGAKYDPEGEYIRQWLPELARLPTEWIHHPWDAPLTVLKASGVELGTNYAKPIVDIDTARELLAKAISRTREAQIMIGAA
# Key:
# [1] = tested on: intracellular microtubules in HeLa cells; assay: Live-cell imaging of MT disruption (MT filament area) in transfected HeLa cells; assay type: cell-based
# Description: The procedures of live-cell imaging are as follows. Live transfected cells cultured on poly(d-lysine)-coated glass coverslips (Hecht Assistent) were treated with either 100 nM rapamycin for rapid induction of protein dimerization and translocation or MT-targeting agents (10 µM nocodazole or 500 µM colchicine) during imaging. Live-cell imaging was conducted on a Nikon T1 inverted fluorescence microscope (Nikon) with a 60× oil objective (Nikon), a Prime camera (Photometrics), and 37° C., 5% CO2 heat stage (Live Cell Instrument). Rapid recruitment of proteins of interest (POIs) was imaged at 5- or 10-sec intervals, whereas the process of MT disruption was imaged at 1-min intervals. Images were obtained using Nikon NIS-Elements AR software and processed with Huygens Deconvolution Software (Scientific Volume Imaging). Image analysis was mainly performed with Nikon NIS-Elements AR software.
# The procedures of measurement of MT filament area are as follows. The MT filaments in living cells were labeled with EMTB-CFP-FRB and imaged in real time (RAW image). The rolling ball correction was used to remove the cytosol background from the RAW images, which was carried out with the Nikon NIS-Elements AR software. Images were processed to generate the binary MT filament pattern via the Otsu threshold and analyzed by Fiji software.
# FIGS. 2D and 2E show rapidly recruiting engineered spastins onto MTs. […] The top three layers are cells that simultaneously express EMTB-CFP-FRB and dNSpastin3Q-YFP-FKBP. The lower three layers are cells that simultaneously express EMTB-CFP-FRB and dNSpastin-YFP-FKBP-C2Lact. The color bar on the right indicates the brightness value represented by the color of the FRET signal. […] Data are shown as the mean ± S.E.M. It was noteworthy that MT disruption triggered by dNSpastin3Q-YFP-FKBP upon rapamycin treatment (T½ = 11.05 ± 1.52 min) was much faster than that of dNSpastin-YFP-FKBP-C2Lact upon rapamycin treatment (T½ = 53.08 ± 8.08 min), and treatment of two common MTAs, nocodazole (10 µM; T½ = 54.02 ± 10.29 min), colchicine (500 µM; T½ = 94.28 ± 8.63 min; see FIGS. 2F to 2J). […] In FIG. 2H, HeLa cells transfected with the indicated constructs were treated with nocodazole (Noc)([…], a type of MTA), colchicine (Col)(500 µM, a type of MTA), or rapamycin (Rapa)(100 nM); scale bar, 10 µm. […] Data are shown as the mean ± S.E.M. Student’s t-tests were performed, with the resulting p-values indicated.
# [2] = target: MT-binding domain of ensconsin-cyan fluorescent protein-FKBP-rapamycin binding domain (EMTB-CFP-FRB) (Artificial Sequence); assay: FRET live-cell imaging in co-transfected HeLa cells, 100 nM rapamycin
# [3] = target: intracellular microtubules (MTs)
# [4] = tested on: cytosolic MTs in HeLa cells; assay: Immunofluorescence staining of α-tubulin in HeLa cells expressing spastin constructs; assay type: cell-based; settings: expression in HeLa cells, α-tubulin intensity
# Description: The procedures of immunofluorescence staining are as follows. Cells cultured in borosilicate glass Lab-Tek eight-well chambers (Nunc) were fixed in 4% paraformaldehyde (Electron Microscopy Sciences) at room temperature for 15 min. Fixed cells were permeabilized with 0.1% Triton X-100 and then incubated in blocking solution (phosphate-buffered saline with 2% bovine serum albumin) for 30 min at room temperature. To label cytosolic MTs, primary ciliary membrane, and axonemal MTs, cells were incubated for 1 hr at room temperature with mouse antibody against α-tubulin (1:500; Sigma Aldrich, T6199), rabbit antibody against Arl13b (1:500; Proteintech, 17711-1-AP), mouse antibody against glutamylated tubulin (1:100; Adipogen, AG-20B-0020-C100), mouse antibody against acetylated tubulin (1:500; Sigma Aldrich, T7451), rat antibody against tyrosinated tubulin (1:100; Sigma Aldrich, MAB1864), and mouse antibody against detyrosinated tubulin (1:100; MERCK, AB3201) each of which was diluted in blocking solution. Cells were then washed with PBS and incubated for 1 hr with appropriate secondary antibodies (1:1000 dilution; Thermo Fisher) at room temperature.
# Spastin is a MT-cleaving enzyme that is ubiquitous in nearly all eukaryotic cells. Expression of full-length spastin (SpastinFL-YFP; the amino acid sequence of spastin is SEQ ID NO: 1) and truncated spastin without the N-terminal 1-140 amino acids (dNSpastin-YFP) in HeLa cells removed significant amounts of cytosolic MTs, 47.45% and 42.86%, respectively, relative to YFP-transfected control cells (See FIGS. 2A to 2C). This means that both full-length spastin and truncated spastin without N-terminal 1-140 amino acids have the effect on disrupting microtubules. FIGS. 2A to 2C show the microtubule cleavage activity of artificially engineered spastin enzyme. […] The dotted line on the right indicates the periphery of the cell that expresses spastin. […] SpastinFL expressed in cells can disrupt the intracellular microtubules. Making SpastinFL be located in the cytosol, truncated spastin would also disrupt the intracellular microtubules, so it would also be located in the cytosol. […] The truncated spastin is used in the subsequent experiments. […] Compared with the YFP control group, both SpastinFL-YFP and dNSpastrin-YFP can disrupt about 40% of the microtubules. Thus the N-terminal fragment (1-140 amino acids) was dispensable for Spastin-mediated MT severing. […]
# [5] = tested on: EMTB-YFP-CIBN-labeled MTs in COS7 cells; assay: Blue-light-induced recruitment of Cry2 proteins onto EMTB-YFP-CIBN-labeled MTs and MT disassembly; assay type: cell-based, African green monkey
# Description: The procedures of photostimulation are as follows. COS7 cells were plated on poly(d-lysine)-coated coverslips and cultured in six-well plates (Thermo Scientific) for 48 hr. Before imaging, cells were incubated with SPY650-tubulin (1000-fold dilution; Spirochrome) at 37° C. for 1 hr. Local photostimulation was carried out with a fluorescence microscope (Nikon) equipped with a digital micromirror device, polygon 400 (MIGHTEX), and a 488-nm light source. Cells were illuminated with the blue light (5 sec on/1 sec off; 1.6 nW/µm^2) for the indicated duration. The mCherry and SPY650-tubulin were simultaneously imaged during photostimulation using Nikon element AR software.
# The inventors next tried to use an optogenetic system to trigger MT disassembly in a sub-cellular region of interest during a specific period of time. Cryptochrome 2 (Cry2) (SEQ ID NO:14) and CIBN (N-terminal 170 amino acids of CIB1) (SEQ ID NO:15), two blue light-sensitive dimerizing partners, were used in our MT-manipulating system. Cry2, which was tagged with the red fluorescent protein mCherry (mCh—Cry2), was rapidly translocated onto EMTB—YFP—CIBN-labeled MTs only in regions illuminated with light (T½ = 34.6 ± 7.58 sec) and dissociated from MTs to the cytosol when the light was off (T½ = 28.2 ± 4.88 sec; see FIGS. 6A and 6B).
# FIGS. 6A and 6B show using light to disassemble MTs in a reversible and location-specific manner. In FIG. 6A, COS7 cells co-transfected with EMTB—YFP—CIBN and mCh—Cry2 (red) were incubated with SPY650-tubulin (SPY650-tub) to visualize MTs; the cells were illuminated by blue light within a specified region (indicated by the dotted circle) for the indicated time period; scale bar, 10 µm.
# The inventors then used light to control spastin-mediated MT disassembly in a spatially and temporally specific manner. dNSpastin3Q tagged with mCh-Cry2 was co-expressed with EMTB—YFP—CIBN in COS7 cells. MTs were labeled with SPY650-tubulin in these experiments.
# FIGS. 6C and 6D show using light to disassemble MTs in a reversible and location-specific manner. In FIG. 6C, COS7 cells co-transfected with EMTB-YFP-CIBN and dNSpastin3Q-mCh—Cry2 were incubated with SPY650-tubulin to visualize MTs; the cells were illuminated by blue light as in FIG. 6A; scale bar, 10 µm. […] Data are shown as the mean ± S.E.M.
# Chain of MT-binding domain of ensconsin-cyan fluorescent protein-FKBP-rapamycin binding domain (EMTB-CFP-FRB) (Artificial Sequence) (chain, as listed by the source): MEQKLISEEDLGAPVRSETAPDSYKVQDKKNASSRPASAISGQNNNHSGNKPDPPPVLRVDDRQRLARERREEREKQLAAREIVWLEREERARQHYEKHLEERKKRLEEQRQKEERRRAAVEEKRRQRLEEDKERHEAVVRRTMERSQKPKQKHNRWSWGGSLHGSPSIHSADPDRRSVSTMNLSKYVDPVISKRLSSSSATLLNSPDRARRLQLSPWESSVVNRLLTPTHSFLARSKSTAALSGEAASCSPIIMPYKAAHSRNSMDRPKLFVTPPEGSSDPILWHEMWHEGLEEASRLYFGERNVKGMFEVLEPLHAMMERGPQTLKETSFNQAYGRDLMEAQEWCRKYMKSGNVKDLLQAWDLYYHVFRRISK
molecule,measurement,setting,value
COc1cc2c(c(OC)c1OC)-c1ccc(OC)c(=O)cc1[C@@H](NC(C)=O)CC2 [colchicine],microtubules removed within one hour,[1]; 500 µM colchicine,49%
same,time required to disrupt half of the intracellular microtubules,[1]; colchicine 500 µM,94.28 ± 8.63 min
same,T½ of MT disruption,"[1]; colchicine 500 µM, HeLa cells",1.571 ± 0.144 h
yellow fluorescent protein-tagged FKBP (YFP-FKBP),T½ of translocation,[2],5.73 s
B1,removal of cytosolic MTs (normalized intensity of α-tubulin),[3],47.5%
B2,removal of cytosolic MTs (normalized intensity of α-tubulin),[3],42.9%
same,cytosolic MTs removed relative to YFP-transfected control cells,[4],42.86%
same,cytosolic MTs removed relative to YFP-transfected control cells,[4]; listed as dNSpastrin-YFP,about 40%
B3,reversibility in the dark,[5]; COS7 cells placed back in the dark,MT reassembly occurred
same,light-induced MT disassembly,"[5]; COS7 cells, local blue light illumination, SPY650-tubulin",disassembly of MTs only in illuminated regions
